Data on four molecules can be found in publication PMC6038944 (Biochemistry, 2018).

Series [1] addresses apo-transferrin (iron-free serotransferrin) (UniProt P02787). The experiment in a line: SPR. The conditions noted are these: 150 mM NaCl, pH 7.4: 20 mM HEPES, pH 6.0: 20 mM PIPES.
Series [2] concerns the molecule itself.

Sequence of apo-transferrin (iron-free serotransferrin) (P02787 whole entry): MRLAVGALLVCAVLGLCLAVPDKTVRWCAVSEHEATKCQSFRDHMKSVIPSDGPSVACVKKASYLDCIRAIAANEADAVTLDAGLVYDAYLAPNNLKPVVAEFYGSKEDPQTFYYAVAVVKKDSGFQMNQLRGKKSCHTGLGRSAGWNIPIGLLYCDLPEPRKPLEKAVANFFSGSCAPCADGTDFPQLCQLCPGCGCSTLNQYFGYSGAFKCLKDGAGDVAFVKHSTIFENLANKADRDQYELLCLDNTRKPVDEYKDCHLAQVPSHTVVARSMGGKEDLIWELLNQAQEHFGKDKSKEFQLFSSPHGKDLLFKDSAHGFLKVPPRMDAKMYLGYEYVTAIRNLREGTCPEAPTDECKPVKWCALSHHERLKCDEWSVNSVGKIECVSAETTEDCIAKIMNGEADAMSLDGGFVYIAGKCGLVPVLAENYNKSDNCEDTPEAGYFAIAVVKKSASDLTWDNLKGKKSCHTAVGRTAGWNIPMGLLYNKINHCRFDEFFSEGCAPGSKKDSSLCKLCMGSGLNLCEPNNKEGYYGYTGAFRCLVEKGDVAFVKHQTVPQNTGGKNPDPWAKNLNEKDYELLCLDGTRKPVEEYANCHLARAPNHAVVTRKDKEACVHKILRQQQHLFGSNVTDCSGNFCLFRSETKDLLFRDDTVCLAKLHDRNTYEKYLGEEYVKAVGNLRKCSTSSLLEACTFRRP

For the molecule “EGFP-TfR2 (full-length transferrin receptor 2, EGFP fusion)”, in series [1] (pH 6.0), the ka1 came to 150000 M⁻¹ s⁻¹, the ka2 came to 34000 M⁻¹ s⁻¹, the kd1 is 1100 s⁻¹ and the kd2 turned out to be 643 s⁻¹. Besides, in series [1] (pH 7.4), the ka1 worked out at 66000 M⁻¹ s⁻¹, the ka2 was 6300 M⁻¹ s⁻¹, the kd1 stood at 44000 s⁻¹ and the kd2 was 8160 s⁻¹.
For “EGFP-TfR1 (full-length transferrin receptor 1, EGFP fusion)”, in series [1] (pH 6.0), the ka1 was determined as 1.01e+06 M⁻¹ s⁻¹, the ka2 came to 3.01e+06 M⁻¹ s⁻¹ and the kd1 was 1.2 s⁻¹. Also, in series [1] (pH 7.4), the ka1 was 450000 M⁻¹ s⁻¹, the ka2 was 19000 M⁻¹ s⁻¹ and the kd1 came out at 22000 s⁻¹.
In series [1] (pH 6.0), “EGFP-TfR2-TfR1HD (TfR2 chimera carrying the TfR1 helical domain) helical domain swap: TfR2 637-801 replaced by TfR1 605-760” came in with a ka1 of 160000 M⁻¹ s⁻¹, a ka2 of 1.03e+06 M⁻¹ s⁻¹, a kd1 of 350 s⁻¹ and a kd2 of 4950 s⁻¹. Also, in series [1] (pH 7.4), the ka1 came to 510000 M⁻¹ s⁻¹, the ka2 was 163000 M⁻¹ s⁻¹, the kd1 was 2500 s⁻¹ and the kd2 came out at 78300 s⁻¹.

B1: full-length EGFP-TfR2 (transferrin receptor-2) (receptor, human, UniProt Q9UP52 1-801, looked up)
chain: MERLWGLFQRAQQLSPRSSQTVYQRVEGPRKGHLEEEEEDGEEGAETLAHFCPMELRGPEPLGSRPRQPNLIPWAAAGRRAAPYLVLTALLIFTGAFLLGYVAFRGSCQACGDSVLVVSEDVNYEPDLDFHQGRLYWSDLQAMFLQFLGEGRLEDTIRQTSLRERVAGSAGMAALTQDIRAALSRQKLDHVWTDTHYVGLQFPDPAHPNTLHWVDEAGKVGEQLPLEDPDVYCPYSAIGNVTGELVYAHYGRPEDLQDLRARGVDPVGRLLLVRVGVISFAQKVTNAQDFGAQGVLIYPEPADFSQDPPKPSLSSQQAVYGHVHLGTGDPYTPGFPSFNQTQFPPVASSGLPSIPAQPISADIASRLLRKLKGPVAPQEWQGSLLGSPYHLGPGPRLRLVVNNHRTSTPINNIFGCIEGRSEPDHYVVIGAQRDAWGPGAAKSAVGTAILLELVRTFSSMVSNGFRPRRSLLFISWDGGDFGSVGSTEWLEGYLSVLHLKAVVYVSLDNAVLGDDKFHAKTSPLLTSLIESVLKQVDSPNHSGQTLYEQVVFTNPSWDAEVIRPLPMDSSAYSFTAFVGVPAVEFSFMEDDQAYPFLHTKEDTYENLHKVLQGRLPAVAQAVAQLAGQLLIRLSHDRLLPLDFGRYGDVVLRHIGNLNEFSGDLKARGLTLQWVYSARGDYIRAAEKLRQEIYSSEERDERLTRMYNVRIMRVEFYFLSQYVSPADSPFRHIFMGRGDHTLGALLDHLRLLRSNSSGTPGATSSTGFQESRFRRQLALLTWTLQGAANALSGDVWNIDNNF
In the case of B1, the “stoichiometry N” value in series [2] is 2.

Usually stoichiometry N stands for the number of molecules, sites or subunits per partner or assembly.
